Values joined by “and” are separate entries in the source; they are usually repeats but may differ in a detail not shown here. Identical values can stand only once.
Legend:
[1] = test system: primer-template duplex, correct or incorrect incoming dNTP; assay: Steady-state single nucleotide incorporation kinetics, gel-based assay; assay type: biochemical
Experimental: Kinetic parameters were determined using a gel-based assay essentially as described (16). Primers 15, 16, 17 (3′ base=G, C, A respectively) were ^32P-labeled and annealed to one of template strands 18, 19, 20 (template base=C, G, A respectively) or 21 (template base C different context). Duplex substrates were used at 50 nM final concentration in 1× Taq buffer with various concentrations of enzyme and dNTP. Reactions were carried out at 60° C. for times whereby <20% of primer-template was utilized at the highest concentration of dNTP.
Extension and incorporation kinetics of M1 and M4 for a selection of mismatches were measured using a gel-based steady-state kinetic assay (Goodman) (Tables 1 & 2). M1 and M4 respectively extend a C•C mispair 390 and 75-fold more efficiently than wtTaq. […] The gain in extension efficiency derives predominantly from increased relative Vmax values for the mutant polymerases, while Km for nucleotide substrates remains largely unchanged. For most DNA polymerases the relative efficiency of extending a given mispair (f0ext) is similar to the relative efficiency of forming it (finc) (Goodman 1993, Goodman 1990, Washington 2001). Indeed, M1 and M4 respectively incorporate dCTP opposite template base C 206- and 29-fold more efficiently than wtTaq (Table 2).

undamaged template = assay: Translesion replication assay, control; assay type: biochemical; details: gel-extension assay, 60° C.
Experimental: (§1) Template primers 22 (undamaged) or 23 (containing a synthetic abasic site) were synthesized by Lofstrand Laboratories (Gaithersburg, Md.). Template primer 24 (containing a single cis-syn thymine dimer), was synthesized as described (34). Primer 25 was ^32P-labeled and annealed to one of the three templates 22, 23, 24 (at a primer template ratio of molar 1:1.5) and extended in 40 mM Tris.HCl at pH 8.0, 5 mM MgCl2, 100 μM of each dNTP, 10 mM DTT, 250 μg/ml BSA, 2.5% glycerol, 10 nM primer-template DNA and 0.1 Unit of polymerase at 60° C. for various times.

[2] = test system: template containing a cis-syn cyclobutane thymine-thymine dimer (CPD); assay: Translesion replication assay (primer extension), CPD; assay type: biochemical; details: gel-extension assay, 60° C.
Experimental: as §1
Primer extension assays were essentially as described in (Ghadessy et al., 2004). Briefly, undamaged oligonucleotides and a 51mer containing a synthetic abasic site were synthesized by Lofstrand Laboratories (Gaithersburg, Md.) using standard techniques and were gel purified prior to use. A 20mer primer (LES—20 P) with the sequence 5′-[…]-3′ (SEQ ID NO: 99) was 5′-labeled with [^32P]ATP (5000 Ci/mmole; 1 Ci=37 GBq) (Pharmacia) using T4 polynucleotide kinase (Invitrogen, Carlsbad Calif.). Radiolabeled primer-template DNAs were prepared by annealing the 5′[^32P] labeled 20mer primer to one of the two following 51mer templates (at a primer template ratio of molar 1:1.5). 1) undamaged DNA (UNDT51T); 5′-AGCTACCATGCCTGCACGAATTCGGCATCCGTCGCGACCACGGTCGCAGCG-3′ (SEQ ID NO: 100); 2) an oligo (LABA51T) containing a synthetic abasic site (indicated as an X in bold font); 5′-AGCTACCATGCCTGCACGACA XCG GCATCCGTCGCGACCACGGTCGCAGCG-3′ (SEQ ID NO: 101). Standard replication reactions of 10 contained 40 mM Tris.HCl at pH 8.0, 5 mM MgCl2, 100 μM of each ultrapure dNTP (Amersham Pharmacia Biotech, NJ), 10 mM DTT, 250 μg/ml BSA, 2.5% glycerol, 10 nM 5′[32P] primer-template DNA and 0.1 Unit of polymerase. After incubation at 60° C. for various times reactions were terminated by the addition of 10 μl of 95% formamide/10 mM EDTA and the samples heated to 100° C. for 5 min. Reaction mixtures (5 μl) were subjected to 20% polyacrylamide/7 M Urea gel electrophoresis and replication products visualized by PhosphorImager analysis.

[3] = PCR with all four dNTPs replaced by αS dNTPs; assay type: biochemical; details: 50 cycle PCR, 50 μM αS dNTPs
Experimental: A PCR assay was used to screen and rank clones. Briefly, clones were normalized for activity in PCR with matched primers 3, 4 and activity with mismatched primers 1 and 2 (1 μM each) determined at minimal cycle number (15-25 cycles). Extension capability for different mismatches was determined by the same assay using mismatch primers 2 (C•C mismatch), 5 (A•A mismatch), 6 (G•G mismatch), 7 (G•A mismatch) with matched primer 3 or primer 1 (A•G mismatch) with matched primer 4. Incorporation of unnatural substrates in 50 cycle PCR was carried out using standard conditions and 50 μM […] dNTPs (Promega) or 50 μM FITC-12-dATP (Perkin-Elmer), Rhodamine-5-dUTP (Perkin-Elmer) or Biotin-16-dUTP (Roche) with equivalent amounts of the other 3 dNTPs (all 50 μM). Long PCR was carried out using a two-step cycling protocol as described (22) 94° C. for 2 minutes, followed by 20 cycles of (94° C. 15 sec, 68° C. 30 min) using 5 ng of phage λ DNA (New England Biolabs) template and either primers 9, 10, 11 with primer 12 or primer 13 with primers 10, 14.

[4] = molecular target: matched and mismatched primer-template duplex; assay: Template affinity equilibrium binding assay; details: not shown
Experimental: An equilibrium binding assay (12) was used to determine relative affinity of polymerases for the mismatched primer-templates used in the kinetics assays. Polymerases were preincubated at 60° C. in 1× Taq buffer with 50 nM ^32P-labeled matched primer-template and 50 nM unlabeled mismatched competitor primer-templates. Reactions were initiated by simultaneous addition of dCTP (200 μM) and trap DNA (XbaI/SalI-restricted sheared salmon sperm DNA, 4.5 mg/ml).

[5] = base pair C: dCTP (template base: incoming nucleotide)
[6] = base pair C: dGTP (template base: incoming nucleotide), correct dNTP
[7] = base pair C: dGTP, correct dNTP
[8] = base pair G: dATP (template base: incoming nucleotide)
[9] = base pair G: dCTP (template base: incoming nucleotide), correct dNTP
[10] = base pair G: dCTP, correct dNTP
[11] = base pair G: dGTP (template base: incoming nucleotide)
[12] = base pair G: dTTP (template base: incoming nucleotide)

## wtTaq: Thermus aquaticus (Taq) wild type DNA polymerase [reference compound]
[1]; base pair C: dCTP
  Km: 1330 µM
  Ratio of finc, finc (mutant polymerase)/finc (wtTaq): 1
  finc, f (incorrect dNTP)/f (correct dNTP): 3.86 × 10^−8
[1]; [5]
  Vmax: 3.3 % Min^−1
[1]; [6]
  Vmax: 2356.02 % Min^−1
[1]; [7]
  Km: 0.0366 µM
[1]; base pair G: dATP
  Km: 259 µM
  Ratio of finc, finc (mutant polymerase)/finc (wtTaq): 1
  finc, f (incorrect dNTP)/f (correct dNTP): 8.27 × 10^−5
[1]; [8]
  Vmax: 1973.68 % Min^−1
[1]; [9]
  Vmax: 1477 % Min^−1
[1]; [10]
  Km: 0.016 µM
[1]; base pair G: dGTP
  Km: 365 µM
  Ratio of finc, finc (mutant polymerase)/finc (wtTaq): 1
  finc, f (incorrect dNTP)/f (correct dNTP): 1.7 × 10^−6
[1]; [11]
  Vmax: 57.47 % Min^−1
[1]; base pair G: dTTP
  Km: 1.64 µM
  Ratio of finc, finc (mutant polymerase)/finc (wtTaq): 1
  finc, f (incorrect dNTP)/f (correct dNTP): 1.65 × 10^−4
[1]; [12]
  Vmax: 25.08 % Min^−1
Undamaged template
  primer extension on undamaged template: efficiently and rapidly extended primers to the end of the template
[2]
  CPD bypass in primer extension: only able to insert a base opposite the 3′T of the dimer after prolonged reaction conditions
[3]
  PCR amplification with all four αS dNTPs: failed to generate any amplification products
[4]
  dissociation constants for matched and mismatched primer-template duplex: indistinguishable

B1: M1: Taq mutant G84A, D144G, K314R, E520G, F598L, A608V, E742G; SEQ ID NO: 1 (protein)
chain: MRGMLPLFEPKGRVLLVDGHHLAYRTFHALKGLTTSRGEPVQAVYGFAKSLLKALKEDGDAVIVVFDAKAPSFRHEAYGGYKAARAPTPEDFPRQLALIKELVDLLGLARLEVPGYEADDVLASLAKKAEKEGYEVRILTADKGLYQLLSDRIHVLHPEGYLITPAWLWEKYGLRPDQWADYRALTGDESDNLPGVKGIGEKTARKLLEEWGSLEALLKNLDRLKPAIREKILAHMDDLKLSWDLAKVRTDLPLEVDFAKRREPDRERLRAFLERLEFGSLLHEFGLLESPKALEEAPWPPPEGAFVGFVLSRREPMWADLLALAAAAGGRVHRAPEPYKALRDLKEARGLLAKDLSVLALREGLGLPPGDDPMLLAYLLDPSNTTPEGVARRYGGEWTEEAGERAALSERLFANLWGRLEGEERLLWLYREVERPLSAVLAHMEATGVRLDVAYLRALSLEVAEEIARLEAEVFRLAGHPFNLNSRDQLERVLFDELGLPAIGKTEKTGKRSTSAAVLGALREAHPIVEKILQYRELTKLKSTYIDPLPDLIHPRTGRLHTRFNQTATATGRLSSSDPNLQNIPVRTPLGQRIRRAFIAEEGWLLVVLDYSQIELRVLAHLSGDENLIRVFQEGRDIHTETASWMFGVPREAVDPLMRRAAKTINFGVLYGMSAHRLSQELAIPYEEAQAFIERYFQSFPKVRAWIEKTLEEGRRRGYVETLFGRRRYVPDLEARVKSVRGAAERMAFNMPVQGTAADLMKLAMVKLFPRLEEMGARMLLQVHDELVLEAPKERAEAVARLAKEVMEGVYPLAVPLEVEVGIGEDWLSAKE
modifications: Mutant Thermus aquaticus DNA polymerase
[1]; base pair C: dCTP
  Km: 264 µM
  Ratio of finc, finc (mutant polymerase)/finc (wtTaq): 206 and 206.74
  finc, f (incorrect dNTP)/f (correct dNTP): 7.97 × 10^−6
[1]; [5]
  Vmax: 6.08 % Min^−1
[1]; [6]
  Vmax: 111.66 % Min^−1
[1]; [7]
  Km: 0.0387 µM
[1]; base pair G: dATP
  Km: 257 µM
  Ratio of finc, finc (mutant polymerase)/finc (wtTaq): 2.08
  finc, f (incorrect dNTP)/f (correct dNTP): 1.72 × 10^−4
[1]; [8]
  Vmax: 681.82 % Min^−1
[1]; [9]
  Vmax: 308 % Min^−1
[1]; [10]
  Km: 0.02 µM
[1]; base pair G: dGTP
  Km: 377 µM
  Ratio of finc, finc (mutant polymerase)/finc (wtTaq): 21.88
  finc, f (incorrect dNTP)/f (correct dNTP): 3.72 × 10^−5
[1]; [11]
  Vmax: 215.98 % Min^−1
[1]; base pair G: dTTP
  Km: 1.65 µM
  Ratio of finc, finc (mutant polymerase)/finc (wtTaq): 2.43
  finc, f (incorrect dNTP)/f (correct dNTP): 4.01 × 10^−4
[1]; [12]
  Vmax: 10.19 % Min^−1
Undamaged template
  primer extension on undamaged template: efficiently and rapidly extended primers to the end of the template
[2]
  CPD bypass in primer extension: able to readily extend all of the primer to the 3′T of the dimer
[3]
  size of PCR products with all four αS dNTPs: up to 2 kbp
[4]
  dissociation constants for matched and mismatched primer-template duplex: indistinguishable
